Measurements as given in patent US20220112295A1 (Novo Nordisk, published 2022).

T1: cyno CD30L LZ (cynomolgus monkey, UniProt A0A7N9CVX7 63-234)
T1 construct: extracellular domain; not shown: N-terminal isoleucine zipper motif
T1 sequence: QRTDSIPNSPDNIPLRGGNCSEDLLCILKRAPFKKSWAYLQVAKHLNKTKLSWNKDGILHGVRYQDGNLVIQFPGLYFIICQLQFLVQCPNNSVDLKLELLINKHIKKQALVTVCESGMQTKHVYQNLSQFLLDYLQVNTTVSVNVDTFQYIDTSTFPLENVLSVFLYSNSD

B1: Antibody E (antibody, V domains shown)
VH: QVQLQESGPRLVKPSETLSLTCTVSGGSITNNYWSWIRQPAGKGLEWIGRVYSSGLTNYKPSLKSRVTMSVDTSKNQFSLRLNSVTAADTAVYYCARERATVTTRYHYDGMDVWGQGTSVTVSS
VL: QSALTQPASVSGSPGQSITISCTGSSSDIGTYNYVSWYQQYPGKAPELMIYEVNNRPSGVSDRFSGSTSGNTASLTISGLQANDEADYYCSSYSSSSTWVFGGGTKLTVL
notes: also called mAb E
B2: Antibody A (antibody, V domains shown)
VH: QVQLQESGPGLVKPSETLSLTCTVSGGSISSYIWSWIRQPAGKGLEWIGRIYASGNTNYNPSLKSRVTMSVDTSKNQFSLKLSSMTAADTAVYYCARDYRVAGTYYYYYGLDVWGQGTTVTVSS
VL: QSALTQPASVSGSPGQSITISCTGTSSDVGVYDYVSWYQQHPGKAPKLMIYEVSNRPSGVSNRFSGSKSGNTASLTISGLQTEDEADYYCSSYTSRSTWVFGGGTKLTVL
notes: Human antibody (XenoMouse); also called mAb A; anti-hCD30L A
B3: Antibody F (antibody, V domains shown)
VH: QVQLQESGPGLVKPSETLSLTCTVSGGSISSYYWSWIRQPAGKGLEWIGRIFASGSTNYNPSLRSRVTMSRDTSKNQFSLKLSSVTAADTAVYYCAKERVGVQDYYHYSGMDVWGQGTTVTVSS
VL: QSALTQPASVSGSPGQSITISCTGTSSDVGLYNYVSWYQQQPGKAPKLMIYEVSKRPSGVSNRFSGSTSGNTASLTISGLQADDEADYSCSSYTSSSTWVFGGGTKLTVL
notes: also called mAb F

The binders below were run against T1, cyno CD30L LZ (assay: blocking of cyno CD30L LZ binding to K299 cells (CD30)).
Experimental: Anti-CD30L IgG antibodies were titrated into culture diluent (RPMI-1640 medium+10% heat-inactivated fetal bovine serum) and placed into round-bottomed 96-well microtiter plates (Costar® 96 well plate (Corning; Acton, Mass.) to give a range of final concentrations from luglmi to 10 pg/ml. As a positive control, a mouse anti-human CD30L monoclonal antibody was prepared as described in U.S. Pat. No. 5,480,981. The final volume of diluent and CD30L IgG was 100 μl/well. To each well was then added 50 µl of recombinant human CD30L isoleucine zipper ([…]). The huCD30L LZ construct consists of the extracellular domain of human CD30L (see U.S. Pat. No. 5,480,981) linked at its N-terminus to an isoleucine zipper motif modified by replacing the leucine residues with isoleucine residues. The single cell assay was also used to determine cyno cross-reactivity using a cyno CD30L LZ instead of the huCD30L LZ. CynoCD30L LZ was prepared as described for the human LZ molecule.
The plates were incubated for 45 minutes at room temperature. To each well was added 50 μl of K299 cells (4×10⁵ cells/ml). The plates were then incubated for 24 hours at 37° C. 5% CO₂.
The amount of IL-8 in the cell supernatants was determined by sandwich ELISA, using a CDCL8/IL-8 ELISA DuoSet kit according to the manufacturer's instructions (R&D Systems, Minneapolis, Minn.). IL-8 levels were interpolated from the ELISA standard curve using DeltaSoft 3 version 2.2 software (DeltaSoft, Inc. Hillsborough, N.J.). At results were expressed as the mean It standard error of the mean (SEM) for 3 replicate cultures calculated by GraphPad PRISM software v. 4.01 (GraphPad Software Inc., San Diego, Calif.) as were the IC₅₀ values. The IC₅₀ value derived using the huCD30L LZ for Antibody A1 was 2700 pM. The results using the cynoCD30L LZ can be found in Table 5.
Work on B1 yielded an IC50 of 1.3 nM.
In the case of B2, the IC50 is reported as 1.4 nM.
In the case of B3, the IC50 is reported as 0.45 nM.
